Reference: paper PMC9135631 (2022)

B1: Latrophilin-3 wild type (Lphn3^HA,Flag) (receptor)
chain: MWPSQLLIFMMLLAPIIHAFSRAPIPMAVVRRELSCESYPIELRCPGTDVIMIESANYGRTDDKICDSDPAQMENIRCYLPDAYKIMSQRCNNRTQCAVVAGPDVFPDPCPGTYKYLEVQYECVPYKVEQKVFLCPGLLKGVYQSEHLFESDHQSGAWCKDPLQASDKIYYMPWTPYRTDTLTEYSSKDDFIAGRPTTTYKLPHRVDGTGFVVYDGALFFNKERTRNIVKFDLRTRIKSGEAIIANANYHDTSPYRWGGKSDIDLAVDENGLWVIYATEQNNGKIVISQLNPYTLRIEGTWDTAYDKRSASNAFMICGILYVVKSVYEDDDNEATGNKIDYIYNTDQSKDSLVDVPFPNSYQYIAAVDYNPRDNLLYVWNNYHVVKYSLDFGPLDSRSGQAHHGQVSYISPPIHLDSELERPSVKDISTTGPLGMGSTTTSTTLRTTTLSPGRSTTPSVSGRRNRSTSTPSPAVEVLDDMTTHLPSASSQIPALEESCEAVEAREIMWFKTRQGQIAKQPCPAGTIGVSTYLCLAPDGIWDPQGPDLSNCSSPWVNHITQKLKSGETAANIARELAEQTRNHLNAGDITYSVRAMDQLVGLLDVQLRNLTPGGKDSAARSLNKLQKRERSCRAYVQAMVETVNNLLQPQALNAWRDLTTSDQLRAATMLLHTVEESAFVLADNLLKTDIVRENTDNIKLEVARLSTEGNLEDLKFPENMGHGSTIQLSANTLKQNGRNGEIRVAFVLYNNLGPYLSTENASMKLGTEALSTNHSVIVNSPVITAAINKEFSNKVYLADPVVFTVKHIKQSEENFNPNCSFWSYSKRTMTGYWSTQGCRLLTTNKTHTTCSCNHLTNFAVLMAHVEVKHSDAVHDLLLDVITWVGILLSLVCLLICIFTFCFFRGLQSDRNTIHKNLCISLFVAELLFLIGINRTDQPIACAVFAALLHFFFLAAFTWMFLEGVQLYIMLVEVFESEHSRRKYFYLVGYGMPALIVAVSAAVDYRSYGTDKVCWLRLDTYFIWSFIGPATLIIMLNVIFLGIALYKMFHHTAILKPESGCLDNINYEDNRPFIKSWVIGAIALLCLLGLTWAFGLMYINESTVIMAYLFTIFNSLQGMFIFIFHCVLQKKVRKEYGKCLRTHCCSGKSTESSIGSGKTSGSRTPGRYSTGSQSRIRRMWNDTVRKQSESSFITGDINSSASLNREPYRETSMGVKLNIAYQIGASEQCQGYKCHGYSTTEW
B2: soluble FLRT3 extracellular domain fused to the constant fraction of human IgG (FLRT3^ECD-Fc) (Fc fusion)
chain: KSCPSVCRCDAGFIYCNDRFLTSIPTGIPEDATTLYLQNNQINNAGIPSDLKNLLKVERIYLYHNSLDEFPTNLPKYVKELHLQENNIRTITYDSLSKIPYLEELHLDDNSVSAVSIEEGAFRDSNYLRLLFLSRNHLSTIPWGLPRTIEELRLDDNRISTISSPSLQGLTSLKRLVLDGNLLNNHGLGDKVFFNLVNLTELSLVRNSLTAAPVNLPGTNLRKLYLQDNHINRVPPNAFSYLRQLYRLDMSNNNLSNLPQGIFDDLDNITQLILRNNPWYCGCKMKWVRDWLQSLPVKVNVRGLMCQAPEKVRGMAIKDLNAELFDCKDSGIVSTIQITTAIPNTVYPAQGQWPAPVTKQPDIKNPKLTKDHQTTGSPSRKTITITVKSVTSDTIHISWKLALPMTALRLSWLKLGHSPAFGSITETIVTGERSEYLVTALEPDSPYKVCMVPMETSNLYLFDETPVCIETETAPLRMYNPTTTLNREQEKEPYKNPNLP
modifications: N-terminal HA/Flag epitopes left out; isoform not printed (Q9HAR2-2 chosen over Q9HAR2-4, both fit the variant numbering); signal peptide removed and autoproteolysis at the GPS expected in the cell

Key:
[1] = target: 8xHis-tagged Teneurin-2 extracellular domain (Ten2^ECD-His) (UniProt Q9NT68 401-2774, N-terminal HA/Flag epitopes left out; isoform not printed (Q9HAR2-2 chosen over Q9HAR2-4, both fit the variant numbering); signal peptide removed and autoproteolysis at the GPS expected in the cell)
[2] = target: B1

Row | Kd [1] [nM] | Kd [2] [nM] | Binder
1 | 0.69 | – | B1
2 | – | 0.988 | B2
